From paper PMC11982570 (Scientific Reports, 2025) come the findings set out here.

For this assay, the target named is Biotinylated BTN3A1 ectodomain + avitag (Homo sapiens, UniProt O00481, biotin on the C-terminal BirA biotinylation sequence). Kind of assay: BLI.
Sequence of Biotinylated BTN3A1 ectodomain + avitag (O00481 whole entry, looked up, the tested form may be a part): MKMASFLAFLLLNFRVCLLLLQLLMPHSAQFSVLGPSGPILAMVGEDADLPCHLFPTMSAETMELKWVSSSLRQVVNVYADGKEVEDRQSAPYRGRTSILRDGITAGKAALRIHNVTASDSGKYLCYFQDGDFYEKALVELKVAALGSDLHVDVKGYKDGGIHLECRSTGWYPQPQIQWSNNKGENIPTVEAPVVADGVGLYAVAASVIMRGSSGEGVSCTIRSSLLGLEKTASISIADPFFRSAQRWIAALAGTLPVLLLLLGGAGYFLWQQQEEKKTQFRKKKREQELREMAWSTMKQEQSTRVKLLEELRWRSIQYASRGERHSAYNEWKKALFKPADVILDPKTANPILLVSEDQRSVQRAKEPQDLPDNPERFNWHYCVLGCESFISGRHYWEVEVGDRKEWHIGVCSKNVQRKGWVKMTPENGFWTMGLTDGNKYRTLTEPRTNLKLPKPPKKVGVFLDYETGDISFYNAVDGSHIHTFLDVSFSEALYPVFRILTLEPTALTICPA

B1: 103.2 mAb (antibody, V domains shown)
VH: QVQLQQSGAEVVRPGTSVKVSCKASGYAFTSYLIHWIKQRPGQGLEWIGVINPRSGDSHYNEKFKDRTTLTADQSSSTAYMQLSSLTSDDSAVYFCARSDYGAYWGQGTLVTVSA
VL: DIVLTQSPVTLSVTPGDSVSLSCRASQSISNNLHWYRQKSHESPRLLIKYASQSIFGIPSRFSGSGSGTEFTLSINSVETEDFGIYFCQQSNSWPHTFGTGTKLELK
Turning to B1, the binding result is “binds”.

B2: 103.2^10 mAb hinge variant (antibody, V domains shown)
VH: B1 VH
VL: B1 VL
Regarding B2, the binding result is “binds”.

B3: 103.2^15 mAb hinge variant (antibody, V domains shown)
VH: B1 VH
VL: B1 VL
In the case of B3, the binding result was “binds”.

B4: 103.2^5 mAb hinge variant (antibody, V domains shown)
VH: B1 VH
VL: B1 VL
Take B4: the binding result was “binds”.

B5: 103.2^30 mAb hinge variant (antibody, V domains shown)
VH: B1 VH
VL: B1 VL
B5: the binding result is “binds”.
